Measured values published in patent publication US5777085, “Humanized antibodies reactive with GPIIB/IIIA” (Protein Design Labs, Inc., dated 1998).

Biological target: GPIIb/IIIa (human, UniProt P08514)
Test: competitive binding on HEL 92.1.7 cells, radioiodinated mouse C4G1 as tracer
Description: The affinities of the humanized C4G1 antibody, Fab fragment and F(ab')_2-1 fragment were determined by competitive binding with the respective mouse C4G1 antibody and fragments. Purified human platelets were used as source of the GPIIb/IIIa antigen. The platelets were purified from buffy coats from normal human donors by centrifugation on ficoll-hypaque. Increasing amounts of humanized or mouse competitor antibody or fragment was added to 4.5 ng of radioiodinated tracer C4G1 antibody (3.5 µCi/ug) and incubated with 3×10^7 platelets in 0.2 ml of modified Tyrode's buffer for 1 hr. at room temperature. Cells were washed with 2 ml of ice-cold buffer and pelleted. The radioactivities were measured, and the concentrations of bound and free tracer antibody were calculated (FIG. 8). The binding affinities of the various antibodies and fragments were calculated as in Queen et al., Proc. Nat. Acad. Sci. USA 86, 10029 (1989). […] The same result was obtained when competitive binding was performed with HEL 92.1.7 cells as source of GPIIb/IIIa antigen. Moreover all the actual binding affinities to these cells were about 10^8 M^-1 or higher.

Row | Ka [M⁻¹] | Binder
1 | > 1e+08 | humanized C4G1 antibody (antibody, V domains shown) VH: QVQLVQSGAEVKKPGSSVKVSCKASGYAFTNYLIEWVRQAPGQGLEWIGVIYPGSGGTNYNEKFKGRVTLTVDESTNTAYMELSSLRSEDTAVYFCARRDGNYGWFAYWGQGTLVTVSS VL: DIQMTQTPSTLSASVGDRVTISCRASQDINNYLNWYQQKPGKAPKLLIYYTSTLHSGVPSRFSGSGSGTDYTLTISSLQPDDFATYFCQQGNTLPWTFGQGTKVEVKR
2 | ≥ 1e+08 | mouse C4G1 antibody (antibody, V domains shown) VH: QVQLQQSGAELVGPGTSVRVSCKASGYAFTNYLIEWVKQRPGQGLEWIGVIYPGSGGTNYNEKFKGKATLTVDKSSTTAYMQLSSLTSDDSAVYFCARRDGNYGWFAYWGRGTLVTVSA VL: DIQMTQTTSSLSASLGDRVTISCRASQDINNYLNWYQQKPDGIVKLLIYYTSTLHSGVPSRFSGSGSGTDYSLTISNLEQEDIATYFCQQGNTLPWTFGGGTKLEIK
3 | ≥ 1e+08 | mouse C4G1 F(ab')2 fragment (other) VH: QVQLQQSGAELVGPGTSVRVSCKASGYAFTNYLIEWVKQRPGQGLEWIGVIYPGSGGTNYNEKFKGKATLTVDKSSTTAYMQLSSLTSDDSAVYFCARRDGNYGWFAYWGRGTLVTVSA VL: DIQMTQTTSSLSASLGDRVTISCRASQDINNYLNWYQQKPDGIVKLLIYYTSTLHSGVPSRFSGSGSGTDYSLTISNLEQEDIATYFCQQGNTLPWTFGGGTKLEIK
4 | ≥ 1e+08 | mouse C4G1 Fab fragment (Fab, V domains shown) VH: QVQLQQSGAELVGPGTSVRVSCKASGYAFTNYLIEWVKQRPGQGLEWIGVIYPGSGGTNYNEKFKGKATLTVDKSSTTAYMQLSSLTSDDSAVYFCARRDGNYGWFAYWGRGTLVTVSA VL: DIQMTQTTSSLSASLGDRVTISCRASQDINNYLNWYQQKPDGIVKLLIYYTSTLHSGVPSRFSGSGSGTDYSLTISNLEQEDIATYFCQQGNTLPWTFGGGTKLEIK
